According to patent US20120207760A1:

Experiments:
[1] = molecular target: M2 protein of influenza A/Hong Kong/483/97 (H5N1) (Influenza A virus A/Hong Kong/483/97)
[2] = molecular target: recombinant homotrimeric HA, A/Solomon Islands/3/06 H1N1 (Influenza A virus A/Solomon Islands/3/06 (H1N1)); assay: trimeric HA microarray, transfection set 5; conditions: remark: other sources report otherwise
[3] = molecular target: recombinant homotrimeric HA, A/California/4/09 H1N1 (Influenza A virus A/California/4/09 (H1N1)); assay: trimeric HA microarray, transfection set 5; conditions: remark: other sources report otherwise
[4] = molecular target: recombinant homotrimeric HA, A/South Carolina/1/18 H1N1 (Influenza A virus A/South Carolina/1/18 (H1N1)); assay: trimeric HA microarray, transfection set 5; conditions: remark: other sources report otherwise
[5] = molecular target: recombinant homotrimeric HA, A/Japan/305/57 H2N2 (Influenza A virus A/Japan/305/57 (H2N2)); assay: trimeric HA microarray, transfection set 5; conditions: remark: other sources report otherwise
[6] = molecular target: recombinant homotrimeric HA, A/Wisconsin/67/05 H3N2 (Influenza A virus A/Wisconsin/67/05 (H3N2)); assay: trimeric HA microarray, transfection set 5; conditions: remark: other sources report otherwise

B1: 3259_J21 (antibody, V domains shown)
VH: QVQLQESGPRVVRPSETLSLTCTVSGGSISSYNWIWIRQPPGKGLEWIGHIYDYGRTFYNSSLQSRPTISVDASKNQLSLRLTSVTASDTAVYYCARPLGILHYYAMDLWGQGTTVTVSS
VL: DIQMTQSPLSVSVSVGDRVTIACRASQSIDKFLNWYQQKPGKAPKLLIYGASNLHSGAPSRFSASGSGTDFTLTITNIQTEDFATYLCQQSFSVPAFGGGTKVEIK
Question: With B1 as the binder, how does the FACS M2-HK MFI [1] read?
Answer: 1670 MFI

B2: 3248_P18 (antibody, V domains shown)
VH: QVQLQESGPGLVKPSETLSLTCTVSGGSISAYHWSWIRQPPGKGLEWIGHIFDSGSTYYNPSLKSRVTISLDASKNQLSLRLTSVTASDTAIYYCARPLGSRYYYGMDVWGQGTTVTVSS
VL: DIQMTQSPSSLSASVGDRVTITCRASQSISRYLNWYQQKPGKAPKLLIYGASTLQNGAPSRFSGSGSGTDFTLTISSLQPEDSATYLCQQSYSVPAFGGGTKVEVK
Question: Which FACS M2-HK MFI [1] does the source give for B2 here?
Answer: 967 MFI

B3: TCN-544 (5082_A19) (antibody, V domains shown)
VH: QVQLQESGPGLVKPSETLSLTCTVSRGSIGHYFWSWIRQPPGKGLEWIGYISYSGSTKYNPSLRSRVTISVDTSKNQFSLNLNSVTATDTALYYCAREDYDILTGAGPGMEVWGQGTTVTVSS
VL: QSMLTQPPSASGTPGQRVTISCSGSSSNIGSNTVNWFKHLPGTAPKLLIYRNDLRPSGVPDRFSGSKSGTSASLAISGLQSEDEADYYCATWDDSLNGFYVFGTGTKVTVL
Question: Which Trimeric HA Binding RLU [2] does the source give for B3 here?
Answer: 997 RLU

Question: And the Trimeric HA Binding RLU [3]?
Answer: 706 RLU

Question: What about the Trimeric HA Binding RLU [4] of the same binder?
Answer: 1330 RLU

Question: What about the Trimeric HA Binding RLU [5] of the same binder?
Answer: 1000 RLU

B4: 3241_G23 (antibody, V domains shown)
VH: QVQLQQSGPGLVKPSQTLSLTCTVSGGPVSGGGYSWNWIRQRPGQGLEWVGFMFHSGSPRYNPTLKSRITISVDTSKNLVSLKLSSVTAADTAVYFCARVGQMDKYYAMDVWGQGTTVTVSS
VL: DIQMTQSPSSLSSSVGDRVTITCRASQSIGAYVNWYQQKAGKAPQVLIFGASNLQSGVPSRFSGSGSGTDFTLTISSLQPEDFATYFCQQTYSTPITFGQGTRLEIK
Question: With B4 as the binder, how does the FACS M2-HK MFI [1] read?
Answer: 1700 MFI

B5: TCN-543 (5081_G23) (antibody, V domains shown)
VH: QVHLVQSGAEVRKPGDSVKVSCKTSGYTFSTYPVAWVRQVPGQGLEWMGWISTYNGNTNFAQNFQGRVTLTTDTTTNTAYMEVRSLKFDDTAVYYCARVEGSYRDFWNNQNRFDPWGQGTLVTVSS
VL: SYVLTQPPSVSVAPGQTARISCGGSNIGGKSVHWYQQKPGQAPVLVVYDDSGRPSGIPERFSGSNSGDTATLTISRVEAGDEADYFCQVWDNFGGVFGTGTKVTVL
Question: With B5 as the binder, how does the Trimeric HA Binding RLU [6] read?
Answer: 37000 RLU

Question: And the Trimeric HA Binding RLU [2]?
Answer: 43500 RLU

Question: And the Trimeric HA Binding RLU [3]?
Answer: 2340 RLU

Question: What about the Trimeric HA Binding RLU [4] of the same binder?
Answer: 28300 RLU

B6: 3139_P23 (antibody, V domains shown)
VH: QVQLQESGPRLVKPSESLSLTCTVSGGSISNSFWGWIRQPPGEGLEWIGYVYNSGNTKYNPSLKSRVTISRDTSKSQLYMKLRSVTAADTAVYYCARHDDASHGYSISWGHGTLVTVSS
VL: DIQMTQSPSSLSASVGDRVTITCRASQTISTYLNWYQQKSGKAPKLLIYAASGLQSGVPSRFSGSGSGTDFTLTISSLQPEDFATYFCQQSYNTPLTFGQGTKVEIK
Question: B6 was tested. Which FACS M2-HK MFI [1] did it give?
Answer: 110 MFI

B7: 3243_J07 (antibody, V domains shown)
VH: QVQLQESGPGLLKPSDTLALTCTVSGGSITSDYWSWIRQPPGRGLDWIGFFYNGGSTKYNPSLKSRVTISADTSKNQLSLKLTSVTAADTGVYYCARHDVKFSGSYYVASWGQGTRVTVSS
VL: DIQMTQSPSSLSASVGDRVTISCRASQSISTYLNWYQQQPGKAPKVLISGATNLQSGVPSRFSGSGSGTDFTLTISSLQPEDFATYYCQQSYNTPLIFGQGTKLEIK
Question: For B7, which FACS M2-HK MFI [1] is on record?
Answer: 131 MFI

B8: 3244_I10 (antibody, V domains shown)
VH: QVQLQESGPGLLKPSDTLALTCTVSGGSITSDYWSWIRQPPGRGLDWIGFFYNGGSTKYNPSLKSRVTISADTSKNQLSLKLTSVTAADTGVYYCARHDAKFSGSYYVASWGQGTRVTVSS
VL: DIQMTQSPSSLSASVGDRVTISCRASQSISTYLNWYQQQPGKAPKVLIFGATNLQSGVPSRFSGSGSGTDFTLTISSLQPEDFATYYCQQSYNTPLIFGQGTKLEIK
Question: With B8 as the binder, how does the FACS M2-HK MFI [1] read?
Answer: 434 MFI

B9: 3253_P10 (antibody, V domains shown)
VH: QVQLQESGPGLLKPSDTLALTCTVSGGSITSDYWSWIRQPPGRGLDWIGFFYNGGSTKYNPSLKSRVTISADTSKNQLSLKLTSVTAADTGVYYCARHDAKFSGSYYVASWGQGTRVTVSS
VL: DIQMTQSPSSLSASVGDRVTISCRASQSISTYLNWYQQQPGKAPKVLISGATDLQSGVPSRFSGSGSGTDFTLTISSLQPEDFATYYCQQSYNTPLIFGQGTKLEIK
Question: Which FACS M2-HK MFI [1] does the source give for B9 here?
Answer: 43 MFI

B10: TCN-549 (5092_P04) (antibody, V domains shown)
VH: QVQLVQSGAEVKKPGASVKVSCKASGYTFTGYYMHWVRQAPGQGLEWMGWINPNSGDTNYAQKFQGRVTMTRDTSITTAYMELSSLRSDDTAVYYCARDSPYSSSWSFFDYWGQGPLVTVSS
VL: not shown
Question: Which Trimeric HA Binding RLU [6] does the source give for B10 here?
Answer: 51600 RLU

Question: What about the Trimeric HA Binding RLU [2] of the same binder?
Answer: 640 RLU

Question: What about the Trimeric HA Binding RLU [3] of the same binder?
Answer: 622 RLU

Question: And the Trimeric HA Binding RLU [5]?
Answer: 1080 RLU

B11: 3260_D19 (antibody, V domains shown)
VH: DMQLVESGGGLVPPGGSLRLSCAASGFSVSDNYINWVRQAPGKGLDWVSVFYSADRTSYADSVKGRFTVSSHDSKNTVYLQMNSLRAEDTAVYYCARVQKSYYGMDVWGQGTTVTVSS
VL: GIQMTQSPSSLSASVGDRVTITCRASQSISRYLNWYLQKPGKAPKLLISGASSLQSGVPSRFSGTGSGTEFTLTISSLQPEDFATYYCQQTFSIPLFGQGTKVEIK
Question: How did the FACS M2-HK MFI [1] turn out when B11 was run?
Answer: 846 MFI

B12: 3242_P05 (antibody, V domains shown)
VH: DMQLVESGGGLVPPGGSLRLSCAASGFSVSDNYINWVRQAPGKGLDWVSVFYSADRTSYADSVKGRFTVSSHDSKNTVYLQMNSLRAEDTAVYYCARVQKSYYGMDVWGQGTTVTVSS
VL: GIQMTQSPSSLSASVGDRVTITCRASQSISRYLNWYLQKPGKAPKLLISGASSLQSGVPSRFSGTGSGTEFTLTISSLQPEDFATYYCQQTFSIPLFGQGTKVEIK
Question: With B12 as the binder, how does the FACS M2-HK MFI [1] read?
Answer: 596 MFI

B13: 3252_C13 (antibody, V domains shown)
VH: QVQLQESGPGLVKPSETLSLTCTVSGASISSDYWSWIRLPPGKGLEWIGYIYNRGSTKYTPSLKSRVTISLDTAENQFSLRLRSVTAADTAIYYCARHVGGHTYGIDYWGQGTLVTVSS
VL: DIQMTQSPSSLSASVGDRVTITCRASQSISNYLNWYQHKPGEAPKLLNYAASSLQSGVPSRFSASGSGTDFTLTISSLQPEDFATYYCQQSYNTPITFGQGTRLEIK
Question: With B13 as the binder, how does the FACS M2-HK MFI [1] read?
Answer: 449 MFI

B14: 3362_B11 (antibody, V domains shown)
VH: QVQLQASGPGLVKPSETLSLTCTVSGDSITSGAYYWTWIRQHPGKGLEWIGYIYYSGNTYYNPSLKSRVTISLDTSKNQFSLKVNSVTAADTAVYYCARAASTSVLGYGMDVWGQGTTVTVSS
VL: DIQMTQSPSSLSASVGDRVTITCRASQSISRYLNWYQQEPGKAPKLLVYAASSLQSGVPSRFSGSGSGTDFTLTISSLQPEDFATYYCQQSYSTPLTFGQGTRLEIK
Question: With B14 as the binder, how does the FACS M2-HK MFI [1] read?
Answer: 218 MFI

B15: 3420_I23 (antibody, V domains shown)
VH: QVQLQESGPGLVKPSETLSVTCKVSGDSISSYSWSWIRQPPGKGLEWVGYLYYSGSTKYNPSLKSRTTISVDTSTNQLSLKLSFVTAADTAVYFCARTGSESTTGYGMDVWGQGTTVTVSS
VL: DIQMTQSPSSLSASVGDRVTITCRASQSISTYLNWYQQKPGKAPKLLIYAASSLHSGVPSRFSGSGSGTDFALTISSLQPEDFATYYCQQSYSPPITFGQGTRLEIK
Question: How did the FACS M2-HK MFI [1] turn out when B15 was run?
Answer: 112 MFI

B16: 3255_J06 (antibody, V domains shown)
VH: QVQLQESGPGLVKPSETLSLTCTVSGASISSDYWSWIRLPPGKGLEWIGYIYNRGSTKYTPSLKSRVTISLDTAENQFSLRLRSVTAADTAVYYCARHVGGHTYGIDYWGQGTLVTVSS
VL: DIQMTQSPSSLSASVGDRVTITCRASQSISNYLNWYQHKPGEAPKLLNYAASSLQSGVPSRFSASGSGTDFTLSISGLQPEDFATYYCQQSYNTPITFGPGTRLEIK
Question: Which FACS M2-HK MFI [1] does the source give for B16 here?
Answer: 442 MFI

B17: 3136_G05 (antibody, V domains shown)
VH: QVQLQESGPGLVKPSETLSLTCSVSGGSISSDFWSWIRQPPGKGLEWIGYVYNRGSTKYSPSLKSRVTISADMSKNQFSLNMSSVTAADTAVYYCAKNGRSSTSWGIDVWGKGTTVTVSS
VL: DIQMTQSPSSLSASVGDRLTITCRASQSISTYLHWYQQKPGKAPKLLIYAASSLQSGVPSRFSGSRSGTDFTLTISSLQPDDFATYYCQQSYSPPLTFGPGTKVDMK
Question: With B17 as the binder, how does the FACS M2-HK MFI [1] read?
Answer: 109 MFI

B18: 3245_O19 (antibody, V domains shown)
VH: EVQLVESGGGLVQPGGSLRLSCTASGLSVSSTYMNWVRQAPGKGLEWVSVFYSETRTYYADSVKGRFTVSRHNSNNTLYLQMNSLRVEDTAVYYCARVQRLSYGMDVWGQGTTVTVSS
VL: DIQMTQSPSSLSASVGDRVTITCRASQSISTYLNWYQKRPGKAPKLLVYGASTLQSGVPSRFSGSGSGTDFTLTIASLQPEDSATYYCQQTYSIPLFGQGTRLEIK
Question: How did the FACS M2-HK MFI [1] turn out when B18 was run?
Answer: 919 MFI

B19: 3244_H04 (antibody, V domains shown)
VH: EVQLVESGGGLVQPGGSLRLSCTASGLSVSSTYMNWVRQAPGKGLEWVSVFYSETRTYYADSVKGRFTVSRHNSNNTLYLQMNSLRAEDTAVYYCARVQRLSYGMDVWGQGTTVTVSS
VL: DIQMTQSPSSLSASVGDRVTITCRASQSISTYLNWYQKRPGKAPKLLVYGASSLQSGVPSRFSGSGSGTDFTLTIASLQPEDSAVYYCQQTYSIPLFGQGTRLEIK
Question: How did the FACS M2-HK MFI [1] turn out when B19 was run?
Answer: 963 MFI
